Test results as given in patent US20180306795A1 (CIZZLE BIOTECHNOLOGY, published 2018).
Values belong to the binder of their own block, whether it stands above or below them. No end group written: not given here.

Key:
[1] = biological target: T1, human fibrinogen alpha chain (carrier protein in human plasma) (human, UniProt P02671-2 20-629); test: peptide incubated with normal human plasma, reducing SDS-PAGE, western blot with 2B and 043
T1 construct: mature; This is the carrier protein of normal plasma that runs at about 65-70 kDa in reducing SDS-PAGE; also called Uniprot P02671
T1 sequence (looked up): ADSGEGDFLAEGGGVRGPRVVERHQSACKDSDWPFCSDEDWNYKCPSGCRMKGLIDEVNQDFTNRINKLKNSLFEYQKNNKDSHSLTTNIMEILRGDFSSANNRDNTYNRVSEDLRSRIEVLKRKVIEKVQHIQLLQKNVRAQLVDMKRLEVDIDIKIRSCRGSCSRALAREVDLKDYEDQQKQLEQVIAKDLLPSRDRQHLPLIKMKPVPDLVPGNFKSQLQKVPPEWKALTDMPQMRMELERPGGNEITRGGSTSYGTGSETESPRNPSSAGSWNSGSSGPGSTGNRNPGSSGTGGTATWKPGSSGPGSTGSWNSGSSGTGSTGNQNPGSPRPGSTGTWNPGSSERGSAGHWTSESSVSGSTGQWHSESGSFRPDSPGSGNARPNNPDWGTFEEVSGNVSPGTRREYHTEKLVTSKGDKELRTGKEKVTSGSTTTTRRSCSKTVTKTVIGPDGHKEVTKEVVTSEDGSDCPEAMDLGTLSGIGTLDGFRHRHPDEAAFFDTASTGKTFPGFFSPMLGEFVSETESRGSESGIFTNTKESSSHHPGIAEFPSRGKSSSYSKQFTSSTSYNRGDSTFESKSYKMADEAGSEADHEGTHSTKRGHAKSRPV
Experimental: (§1) Band identity was verified by ponceau S stain followed by Western blot with anti-CIZ1b antibody 043 of a parallel gel (right). B) Gel slices were soaked in 2% SDS-PAGE loading buffer (with 200 mM βME) and separated through a denaturing gel to recover the 043-reactive species at 70 kDa. Note that sample loaded as a gel slice is slightly retardation compared to markers which are loaded in solution. […] C) Western blot of normal human plasma (non-cancer, N) showing reconstitution of CIZ1b epitope via complex formation between a carrier protein in plasma and synthetic CIZ1b peptides of the indicated lengths, but not equivalent CIZ1a peptide (Table 2). Note that free peptides migrate in reducing SDS-PAGE with a relative mobility 3 times expected (˜21 kDa instead of 7.6 kDa for b66, ˜5 kDa instead of 1.6 for b13). None are recognized by CIZ1b antibodies in western blot unless complexed with carrier protein. For CIZ1b66 peptide a new reactive species is created at ˜80 kDa, while CIZ1b13 peptide increases antigenicity at the same mobility as the endogenous epitope in lung cancer plasmas (C, lane 1). D) Western blot of non-reducing SDS-PAGE gel showing purified fibrinogen (6 nmols) in all lanes (upper), with and without prior incubation with 100 pmols of the indicated peptides (Table 2), probed with CIZ1b antibodies as indicated. […]

[2] = biological target: T1, human fibrinogen alpha chain (carrier …); test: peptide combined with plasma, western blot
[3] = biological target: T1, human fibrinogen alpha chain (carrier …); test: peptide incubated with normal human plasma, western blot (FIG. 10C)
Experimental: as §1

[4] = biological target: T1, human fibrinogen alpha chain (carrier …); test: 50 nmols peptide mixed with 0.5 ul non-cancer plasma, western blot
Experimental: FIG. 3—Ciz1 b-variant ˜65-70 kDa species is a Ciz1 b-variant peptide stably bound to a carrier protein, which may augment antigenicity of Ciz1 b-variant peptide. a) Western blot illustrating cancer-selective epitope recognised by anti-Ciz1 b-variant antibody 2B, as described previously (Higgins et al; as above). b) Reconstitution of a Ciz1 b-variant epitope from synthetic b-variant peptide (50 nmols of […] DFLV—SEQ ID NO: 12) mixed with 0.5 ul of non-cancer plasma. Free peptide migrates with mobility indicative of a MW 3-4× greater than predicted (˜30 kDa instead of 7.6 kDa), indicated by blue arrow. When incubated in plasma mobility decreases, antigenicity increases, and a new species is created at ˜80 kDa, indicated by red arrow. c) Similar results were generated with a separate anti-Ciz1 b-variant monoclonal antibody. d) For reference, a duplicate blot is probed with a monoclonal antibody that is selective for the exon 14a version of the peptide ([…]—SEQ ID NO: 13), showing detection of the peptide in lanes 1 and 3. Key: Lane 1, WT peptide only. Lane 2, B-var peptide only. Lane 3, WT peptide+normal plasma. Lane 4, B-var peptide+normal plasma. Lane 5, normal plasma only. […] F) Western blot showing titration of short peptide ([…]—SEQ ID NO: 2) into cancer patient plasma, detected with anti-Ciz1 b-variant monoclonal antibody (upper) or anti-Ciz1 b-variant polyclonal antibody 043 (lower).

- binding result [1]: binds
Binder: CDEEEIEVRSRDIS-NH2 (also called CIZ1b13) [Short CIZ1b peptide (b13)]

- binding result [2]: binds
B1: Short Ciz1 b-variant peptide DEEEIEVRSRDIS (peptide)
peptide: DEEEIEVRSRDIS
notes: also called short b-variant peptide; short peptide

- binding result [3]: binds
B2: Long CIZ1b peptide (b66) (peptide)
peptide: EIAGQDEDHFITVDAVGCFEGDEEEEEDDEDEEEIEVRSRDISREEWKGSETYSPNTAYGVDFLVP
notes: also called CIZ1b66

- binding result [4]: binds
B3: Long Ciz1 b-variant peptide (SEQ ID NO: 12) (peptide)
peptide: EIAGQDEDHFITVDAVGCFEGDEEEEEDDEDEEEIEVRSRDISREEWKGSETYSPNTAYGVDFLV
notes: also called synthetic b-variant peptide; B-var peptide
